In US6362319B1, “Glial cell line-derived neurotrophic factor” (Amgen Inc., priority 1991, dated 2002):

Assays:
[1] = tested on: dopaminergic neurons in rat embryo (E16) mesencephalic cell cultures; test: Bioassay for dopaminergic neurotrophic activity: 3H-dopamine uptake in dissociated mesencephalic cell cultures; type: cell-based; details: for SP. ACT (specific activity, dopamine uptake trophic units per protein): TU = reciprocal of dilution giving 50% of maximal stimulation of 3H-DA uptake; for FOLD (specific activity relative to B49 conditioned medium): purification fold over CM; for BIOACTIVITY: total trophic units at purification step; for ED50 for increasing dopamine uptake: rat embryo (E16) mesencephalic culture
Procedure: The dopaminergic activity of the GDNF is used to facilitate the purification process. […] Briefly, cultures of dissociated mesencephalic cells are prepared, either in serum rich or serum free environments. Samples to be tested for dopaminergic activity are desalted and serially added to the cell cultures and the dishes are incubated for 6 days at 37° C. in a humidified atmosphere containing 6.5% CO2. The cultures, in the presence of the testing material, are then incubated at 37° C. with tritiated dopamine (^3H-DA). The dopamine uptake is halted, the cells washed, and the dopamine uptake analyzed by scintillation counting of retained tritium in the cultures.
Culture conditions: Dissociated mesencephalic cell cultures were prepared as previously described (Friedman and Mytilineou 1987 Neurosci. Lett. 79:65-72), with minor modifications. Briefly, rostral mesencephalic tegmentum from brains of Sprague-Dawley rat embryos, at the 16th day of gestation, were dissected under the microscope in sterile conditions, collected in Ca^2+- and Mg^2+-free Dulbecco's phosphate buffered saline (Gibco, Gaithersburg, Md.) and dissociated mechanically by mild trituration. The cells were plated in 100 μl per well onto 16-mm diameter tissue culture wells (Falcon, Lincoln Park, N.J., 24-well plate) containing 400 μl medium to give a density of 2.5-3.5×10^5 cells per well. The culture wells had been previously exposed to 0.1 mg/ml solution of poly L-ornithine in 10 mM sodium borate, pH 8.4, for 3 hours at 37° C., washed 3 times in milli-Q H2O and once in Earle's balanced salt solution (Gibco). The feeding medium (10/10) consisted of minimal essential medium (MEM, Gibco) supplemented with glucose (33 mM), sodium bicarbonate (24.5 mM), glutamine (2 mM), HEPES (15 mM), penicillin G (5 U/ml), streptomycin (5 μg/ml), 10% heat-inactivated fetal calf serum (Gibco) and 10% heat inactivated horse serum (Gibco). The cultures were kept at 37° C. in a water-saturated atmosphere containing 6.5% CO2. After 3 hours, when most of the cells had adhered to the bottom of the well, the medium was replaced with 500 μl of fresh medium. At this time, a serial dilution of the sample to be assayed for GDNF activity was added to each well in duplicate and the plates were incubated in the 37° C. incubator. After a week, the cultures were treated for 24 hours with fluorodeoxyuridine (13 μg/ml) and uridine (33 μg/ml) to prevent excessive glial proliferation and subsequently fed with the above medium without fetal calf serum. The feeding medium was changed weekly.
Alternatively, chemically defined serum-free medium was used in which serum was replaced by a mixture of proteins; hormones and salts. The defined medium (DM) consisted of a mixture of MEM and F12 nutrient mixture (both Gibco, 1:1; vol/vol) with glucose (33 mM), glutamine (2 mM) NaHCO3 (24.5 mM), HEPES (15 mM), supplemented with transferrin (100 μg/ml), insulin (25 μg/ml), putrescine (60 μM), progesterone (20 nM), sodium selenite (30 nM), penicillin G (5 U/ml) and streptomycin (5 μg/ml). The osmolarity of the DM was adjusted to 325 by the addition of milli-Q H2O. (110-125 ml H2O/l). […] All assays reached in the following examples were done in serum-containing medium.
The functional status of the dopaminergic neurons may be assayed in these cultures by measuring dopamine uptake through specific “scavenger” transporters in the dopaminergic neurons and by counting the number of neurons positive for the dopamine synthetic enzyme tyrosine hydroxylase using immunohistochemistry.

[2] = tested on: sympathetic neurons from chick embryo sympathetic chain ganglia; test: Neuronal survival assay (MTT), sympathetic chain ganglia; type: cell-based; details: for fold lower than refolded rhGDNF in sympathetic neuron survival bioassay / apparent ED50 in the sympathetic neuron survival bioassay: prior to refolding; for apparent ED50 in the sympathetic neuron survival bioassay: exposed to 30 mM 2-mercaptoethanol
Procedure: Cultures of primary check embryo ciliary ganglia and sympathetic chain ganglia were prepared as previously described (Collins 1978 Develop. Biol. 65:50; Manthorpe et al. 1986 Develop. Brain Res. 25:191). Briefly, ciliary or sympathetic ganglia were removed from fertile, pathogen free chicken eggs that had been incubated for 8 and 10 days, respectively, at 38° C. in a humidified atmosphere. The ganglia were chemically dissociated by exposure first to Hands' Balanced Salt Solution without divalent cations, containing 10 mM HEPES buffer pH 7.2 for 10 min at 37° C., and then by exposure to a solution of 0.125% bactotrypsin 1:250 (Difco, Detroit, Mich.) in Hanks' Balanced Salt Solution modified as above for 12 min at 37° C. Trypsinization was stopped by addition of fetal calf serum to a final concentration of 10%.
After this treatment, ganglia were transferred to a solution consisting of Dulbecco's high glucose Modified Eagle Medium without bicarbonate containing 10% fetal calf serum and 10 mM HEPES, pH 7.2 and were mechanially dissociated by trituration approximately 10 times through a glass Pasteur pipet whose opening had been fire polished and constricted to a diameter such that it took 2 seconds to fill the pipet.
The dissociated ganglia were then plated in culture medium (Dulbecco's Modified Eagle Medium supplemented with 10% fetal calf serum, 4 mM glutamine, 60 mg/L penicillin-G, 25 mM HEPES, pH 7.2) in 100 mm diameter tissue culture dishes (40 dissociated ganglia per dish) for three hours. […] After three hours, the nonadherent nerve cells were collection by centrifugation, resuspended in culture medium, and plated in 50 μl per well onto half area 96 well microtiter tissue culture plates at a density of 1500 nerve cells per well. The microtiter wells had been previously exposed to a 1 mg/ml solution of poly-L-ornithine in 10 mM sodium borate, pH 8.4 overnight at 4° C., washed in distilled water and air dried.
Ten μl of a serial dilution of the sample to be assayed for neurotrophic activity was added to each well and the dishes were incubated for 20 hours at 37° C. in a humidified atmosphere containing 7.5% CO2. After 18 hours for ciliary and 40 hours for sympathetic ganglia, 15 μl per well of a 1.5 mg/ml solution of the tetrasolium dye MTT in Dulbecco's high glucose Modified Eagle Medium without bicarbonate containing 10 mM HEPES, pH 7.2, was added and the cultures placed in the 37° C. incubator for 4 hours. Then, 75 μl of a solution of 6.7 ml of 12 M HCl per liter of isopropanol was added and the contents of each well triturated 30 times to break open the cells and suspend the dye. The absorbance of 570 nm was determined relative to a 690 nm reference for each well using an automatic microtiter plate reader (Dynatech, Chantilly, Va.). The absorbance of wells which had not received any neurotrophic agent (negative controls) was substracted from the absorbance of sample-containing wells. The resulting absorbance is proportional to the number of living cells in each well, defined as those nerve cells capable of reducing the dye. The number of trophic units of neurotrophic activity was defined as the reciprocal of the dilution that gave 50% of maximal survival of nerve cells. Specific activity was determined by dividing the number of trophic units by the amount of protein present in the sample.

B1: GDNF prior to refolding: E. coli-expressed human GDNF, exposed to 2-mercaptoethanol and purified by S- or Q-Sepharose, before refolding (protein, UniProt P39905 78-211, looked up)
Glial cell line-derived …: SPDKQMAVLPRRERNRQAAAANPENSRGKGRRGQRGKNRGCVLTAIHLNVTDLGLGYETKEELIFRYCSGSCDAAETTYDKILKNLSRNRRLVSDKVGQACCRPIAFDDDLSFLDDNLVYHILRKHSAKRCGCI
modifications: unrefolded, E. coli-expressed
bioactivity in dopamine uptake assay [1]: no detectable bioactivity
bioactivity in sympathetic neuron survival bioassay [2]: greatly reduced bioactivity

B2: 5. RP-HPLC: GDNF peak 3 after second reverse-phase HPLC (protein, UniProt Q07731 78-211, looked up)
Glial cell line-derived …: SPDKQAAALPRRERNRQAAAASPENSRGKGRRGQRGKNRGCVLTAIHLNVTDLGLGYETKEELIFRYCSGSCEAAETMYDKILKNLSRSRRLTSDKVGQACCRPVAFDDDLSFLDDSLVYHILRKHSAKRCGCI
modifications: purification fraction
notes: GDNF peak 3 after second reverse-phase HPLC
SP. ACT (specific activity, dopamine uptake trophic units per protein) [1]: 17,000 TU/μg
FOLD (specific activity relative to B49 conditioned medium) [1]: 34,000
BIOACTIVITY [1]: 5 TU × 10^−3

B3: Q-Sepharose chromatographed material: unrefolded sulfonylated human GDNF extract partially purified on Q-Sepharose (protein, UniProt P39905 78-211, looked up)
Glial cell line-derived …: SPDKQMAVLPRRERNRQAAAANPENSRGKGRRGQRGKNRGCVLTAIHLNVTDLGLGYETKEELIFRYCSGSCDAAETTYDKILKNLSRNRRLVSDKVGQACCRPIAFDDDLSFLDDNLVYHILRKHSAKRCGCI
modifications: unrefolded, sulfonylated
fold lower than refolded rhGDNF in sympathetic neuron survival bioassay [2]: about 100 fold
apparent ED50 in the sympathetic neuron survival bioassay [2]: about 3 μg/ml

B4: 3. RP-HPLC: GDNF after first reverse-phase HPLC (protein, UniProt Q07731 78-211, looked up)
Glial cell line-derived …: SPDKQAAALPRRERNRQAAAASPENSRGKGRRGQRGKNRGCVLTAIHLNVTDLGLGYETKEELIFRYCSGSCEAAETMYDKILKNLSRSRRLTSDKVGQACCRPVAFDDDLSFLDDSLVYHILRKHSAKRCGCI
modifications: purification fraction
SP. ACT (specific activity, dopamine uptake trophic units per protein) [1]: 12,000 TU/μg
FOLD (specific activity relative to B49 conditioned medium) [1]: 24,000
BIOACTIVITY [1]: 12 TU × 10^−3

B5: 4. Preparative SDS-PAGE: GDNF eluted from preparative non-reducing SDS-PAGE (protein, UniProt Q07731 78-211, looked up)
Glial cell line-derived …: SPDKQAAALPRRERNRQAAAASPENSRGKGRRGQRGKNRGCVLTAIHLNVTDLGLGYETKEELIFRYCSGSCEAAETMYDKILKNLSRSRRLTSDKVGQACCRPVAFDDDLSFLDDSLVYHILRKHSAKRCGCI
modifications: purification fraction
BIOACTIVITY [1]: 7 TU × 10^−3

B6: S-Sepharose chromatographed material: unrefolded human GDNF TU extract partially purified on S-Sepharose (protein, UniProt P39905 78-211, looked up)
Glial cell line-derived …: SPDKQMAVLPRRERNRQAAAANPENSRGKGRRGQRGKNRGCVLTAIHLNVTDLGLGYETKEELIFRYCSGSCDAAETTYDKILKNLSRNRRLVSDKVGQACCRPIAFDDDLSFLDDNLVYHILRKHSAKRCGCI
modifications: unrefolded, partially purified
fold lower than refolded rhGDNF in sympathetic neuron survival bioassay [2]: about 333 fold
apparent ED50 in the sympathetic neuron survival bioassay [2]: about 1 μg/ml

B7: refolded GDNF: recombinant mature human GDNF expressed in E. coli and refolded (protein)
chain: SNMPEDYPDQFDDVMDFIQATIKRLKRSPDKQMAVLPRRERNRQAAAANPENSRGKGRRGQRGKNRGCVLTAIHLNVTDLGLGYETKEELIFRYCSGSCDAAETTYDKILKNLSRNRRLVTDKVGQACCRPIAF
bioactivity in dopamine uptake assay [1]: fully active
ED50 for increasing dopamine uptake [1]: about 3 pg/ml
ED50 for increasing dopamine uptake ([1]; listed as rhGDNF): about 30 pg/ml
bioactivity in sympathetic neuron survival bioassay [2]: fully active
ED50 for sympathetic neuron survival ([2]; chick embryo (E10) sympathetic ganglia): about 3 ng/ml
